Data from patent US20200199241A1 (Chugai, published 2020).
Residue numbers refer to the chain shown, from its start.

B1: IgG1-F670 (antibody)
heavy: QVQLQESGPGLVKPSETLSLTCAVSGHSISHDHAWSWVRQPPGEGLEWIGFISYSGITNYNPSLQGRVTISRDNSKNTLYLQMNSLRAEDTAVYYCARSLARTTAMDYWGEGTLVTVSSASTKGPSVFPLAPSSKSTSGGTAALGCLVKDYFPEPVTVSWNSGALTSGVHTFPAVLQSSGLYSLSSVVTVPSSSLGTQTYICNVNHKPSNTKVDKKVEPKSCDKTHTCPPCPAPELLGGPSVFLFPPKPKDTLYISRTPEVTCVVVDVSHEDPEVKFNWYVDGVEVHKAKTKPREEQYNSTYRVVSVLTPLHQDWLNGKEYKCKVSNKALPAPIEKTISKAKGQPREPQVYTLPPSRDELTKNQVSLTCLVKGFYPSDIAVEWESNGQPENNYKTTPPVLDSDGSFFLYSKLTVDKSRWQQGNVFSCSVMHEALHYHYTQKSLSLSP
light: not shown
notes: EU numbering; copies: 2 + 2
B2: IgG1-F674 (antibody)
heavy: B1 heavy with K288Q
light: not shown
notes: EU numbering; copies: 2 + 2
B3: IgG1-F678 (antibody)
heavy: B1 heavy with K288V
light: not shown
notes: EU numbering; copies: 2 + 2
B4: IgG1-F673 (antibody)
heavy: B1 heavy with K288P
light: not shown
notes: EU numbering; copies: 2 + 2
B5: IgG1-F677 (antibody)
heavy: B1 heavy with K288T
light: not shown
notes: EU numbering; copies: 2 + 2
B6: IgG1-F687 (antibody)
heavy: B1 heavy with K288N, K290I
light: not shown
notes: EU numbering; copies: 2 + 2
B7: IgG1-F686 (antibody)
heavy: B1 heavy with K288N, K290H
light: not shown
notes: EU numbering; copies: 2 + 2
B8: IgG1-F685 (antibody)
heavy: B1 heavy with K288N, K290G
light: not shown
notes: EU numbering; copies: 2 + 2
B9: IgG1-F688 (antibody)
heavy: B1 heavy with K288N, K290L
light: not shown
notes: EU numbering; copies: 2 + 2
B10: IgG1-F689 (antibody)
heavy: B1 heavy with K288N, K290M
light: not shown
notes: EU numbering; copies: 2 + 2
B11: IgG1-F672 (antibody)
heavy: B1 heavy with K288M
light: not shown
notes: EU numbering; copies: 2 + 2
B12: IgG1-F684 (antibody)
heavy: B1 heavy with K288N, K290F
light: not shown
notes: EU numbering; copies: 2 + 2
B13: IgG1-F681 (antibody)
heavy: B1 heavy with K288N, K290A
light: not shown
notes: EU numbering; copies: 2 + 2
B14: IgG1-F676 (antibody)
heavy: B1 heavy with K288S
light: not shown
notes: EU numbering; copies: 2 + 2
B15: IgG1-F682 (antibody)
heavy: B1 heavy with K288N, K290D
light: not shown
notes: EU numbering; copies: 2 + 2
B16: IgG1-F671 (antibody)
heavy: B1 heavy with K288L
light: not shown
notes: EU numbering; copies: 2 + 2
B17: IgG1-F683 (antibody)
heavy: B1 heavy with K288N, K290E
light: not shown
notes: EU numbering; copies: 2 + 2
B18: IgG1-F679 (antibody)
heavy: B1 heavy with K288W
light: not shown
notes: EU numbering; copies: 2 + 2
B19: IgG1-F680 (antibody)
heavy: B1 heavy with K288Y
light: not shown
notes: EU numbering; copies: 2 + 2
B20: IgG1-F691 (antibody)
heavy: B1 heavy with K288N, K290P
light: not shown
notes: EU numbering; copies: 2 + 2
B21: IgG1-F675 (antibody)
heavy: B1 heavy with K288R
light: not shown
notes: EU numbering; copies: 2 + 2
B22: IgG1-F690 (antibody)
heavy: B1 heavy with K288N, K290N
light: not shown
notes: EU numbering; copies: 2 + 2

These binders were tested against T1, human FcRn (soluble human FcRn complexed with β2-microglobulin) (human, UniProt P61769 21-119, limits assumed) (assay: SPR, pH 7.0;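 further: antibodies captured on a Protein L sensor chip with human FcRn injected as analyte, KD calculated from fitted association and dissociation rate constants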).
T1 construct: also called hFcRn
T1 sequence (chain, as listed by the source limits assumed, chain 1 of 2): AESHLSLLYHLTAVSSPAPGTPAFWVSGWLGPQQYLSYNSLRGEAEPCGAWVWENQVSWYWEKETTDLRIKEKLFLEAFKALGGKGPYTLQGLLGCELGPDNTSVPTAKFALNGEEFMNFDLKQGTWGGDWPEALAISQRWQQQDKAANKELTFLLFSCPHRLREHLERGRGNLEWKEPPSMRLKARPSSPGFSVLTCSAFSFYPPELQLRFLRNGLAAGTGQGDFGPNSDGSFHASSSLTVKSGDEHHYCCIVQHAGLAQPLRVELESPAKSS
T1 sequence (P61769 21-119 limits assumed, chain 2 of 2): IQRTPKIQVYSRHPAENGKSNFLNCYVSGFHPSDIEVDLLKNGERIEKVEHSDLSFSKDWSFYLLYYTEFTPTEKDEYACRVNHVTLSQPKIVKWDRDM

Q: With B1 as the binder, how does the Kd read?
A: 210 nM

Q: Which Kd does the source give for B2 here?
A: 32 nM

Q: How did the Kd turn out when B3 was run?
A: 33 nM

Q: How did the Kd turn out when B4 was run?
A: 23 nM

Q: With B5 as the binder, how does the Kd read?
A: 47 nM

Q: How did the Kd turn out when B6 was run?
A: 49 nM

Q: How did the Kd turn out when B7 was run?
A: 46 nM

Q: With B8 as the binder, how does the Kd read?
A: 53 nM

Q: With B9 as the binder, how does the Kd read?
A: 28 nM

Q: With B10 as the binder, how does the Kd read?
A: 41 nM

Q: B11 was tested. Which Kd did it give?
A: 24 nM

Q: For B12, which Kd is on record?
A: 51 nM

Q: B13 was tested. Which Kd did it give?
A: 49 nM

Q: B14 was tested. Which Kd did it give?
A: 32 nM

Q: B15 was tested. Which Kd did it give?
A: 82 nM

Q: How did the Kd turn out when B16 was run?
A: 22 nM

Q: Which Kd does the source give for B17 here?
A: 50 nM

Q: Which Kd does the source give for B18 here?
A: 17 nM

Q: How did the Kd turn out when B19 was run?
A: 15 nM

Q: For B20, which Kd is on record?
A: 320 nM

Q: With B21 as the binder, how does the Kd read?
A: 51 nM

Q: B22 was tested. Which Kd did it give?
A: 100 nM
